Results taken from patent US20240124528A1 (ACADEMIA SINICA, published 2024).
Values belong to the binder of their own block, whether it stands above or below them.

B4: IL-17RB-Flag (Flag-tagged IL-17RB, wild type) (receptor)
chain: REPTVQCGSETGPSPEWMLQHDLIPGDLRDLRVEPVTTSVATGDYSILMNVSWVLRADASIRLLKATKICVTGKSNFQSYSCVRCNYTEAFQTQTRPSGGKWTFSYIGFPVELNTVYFIGAHNIPNANMNEDGPSMSVNFTSPGCLDHIMKYKKKCVKAGSLWDPNITACKKNEETVEVNFTTTPLGNRYMALIQHSTIIGFSQVFEPHQKKQTRASVVIPVTGDSEGATVQLTPYFPTCGSDCIRHKGTVVLCPQTGVPFPLDNNKSKPGGWLPLLLLSLLVATWVLVAGIYLMWRHERIKKTSFSTTTLLPPIKVLVVYPSEICFHHTICYFTEFLQNHCRSEVILEKWQKKKIAEMGPVQWLATQKKAADKVVFLLSNDVNSVCDGTCGKSEGSPSENSQDLFPLAFNLFCSDLRSQIHLHKYVVVYFREIDTKDDYNALSVCPKYHLMKDATAFCAELLHVKQQVSAGKRSQACHDGCCSL
notes: The construct as expressed; also called Flag-IL-17RB; Flag-tagged WT IL-17RB; not shown: Flag tag
B7: IL-17RB-HA (C-terminally HA-tagged full-length IL-17RB, wild type) (receptor)
chain: REPTVQCGSETGPSPEWMLQHDLIPGDLRDLRVEPVTTSVATGDYSILMNVSWVLRADASIRLLKATKICVTGKSNFQSYSCVRCNYTEAFQTQTRPSGGKWTFSYIGFPVELNTVYFIGAHNIPNANMNEDGPSMSVNFTSPGCLDHIMKYKKKCVKAGSLWDPNITACKKNEETVEVNFTTTPLGNRYMALIQHSTIIGFSQVFEPHQKKQTRASVVIPVTGDSEGATVQLTPYFPTCGSDCIRHKGTVVLCPQTGVPFPLDNNKSKPGGWLPLLLLSLLVATWVLVAGIYLMWRHERIKKTSFSTTTLLPPIKVLVVYPSEICFHHTICYFTEFLQNHCRSEVILEKWQKKKIAEMGPVQWLATQKKAADKVVFLLSNDVNSVCDGTCGKSEGSPSENSQDLFPLAFNLFCSDLRSQIHLHKYVVVYFREIDTKDDYNALSVCPKYHLMKDATAFCAELLHVKQQVSAGKRSQACHDGCCSL
notes: Full-length IL-17RB subcloned into pcDNA3.1, expressed in 293T, IL-17RB-KO BxPC3 or SU.86.86 cells; also called HA-IL-17RB; HA-tagged WT IL-17RB; not shown: HA tag, C-terminal

Tests used:
[1] = target: T1, HA-TRIM56 (TRIM56-HA, HA-tagged tripartite-motif 56) (UniProt Q9BRZ2 1-755); assay: reciprocal co-IP, 293T cells, rIL-17B (FIG. 6D)
T1 construct: also called HA-tagged TRIM56; HA-TIM56; not shown: HA tag of the C-HA vector
T1 sequence (looked up): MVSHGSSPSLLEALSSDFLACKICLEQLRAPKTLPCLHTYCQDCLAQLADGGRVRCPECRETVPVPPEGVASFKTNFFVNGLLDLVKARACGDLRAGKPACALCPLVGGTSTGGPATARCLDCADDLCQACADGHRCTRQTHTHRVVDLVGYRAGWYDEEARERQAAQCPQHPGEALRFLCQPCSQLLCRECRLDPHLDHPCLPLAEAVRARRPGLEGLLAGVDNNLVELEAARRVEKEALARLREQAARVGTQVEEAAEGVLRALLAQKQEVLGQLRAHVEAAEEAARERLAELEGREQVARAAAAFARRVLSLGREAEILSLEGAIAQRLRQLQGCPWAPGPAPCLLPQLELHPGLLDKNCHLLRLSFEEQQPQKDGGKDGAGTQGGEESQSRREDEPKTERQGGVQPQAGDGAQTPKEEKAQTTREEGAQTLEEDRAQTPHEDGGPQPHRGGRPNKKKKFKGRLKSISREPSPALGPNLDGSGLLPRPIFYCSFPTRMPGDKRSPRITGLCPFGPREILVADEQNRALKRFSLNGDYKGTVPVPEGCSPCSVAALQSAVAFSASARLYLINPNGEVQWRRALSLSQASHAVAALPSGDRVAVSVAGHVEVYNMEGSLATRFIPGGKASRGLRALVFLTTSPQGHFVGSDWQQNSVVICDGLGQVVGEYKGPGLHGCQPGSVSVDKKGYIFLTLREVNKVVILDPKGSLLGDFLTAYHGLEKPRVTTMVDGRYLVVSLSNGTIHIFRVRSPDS

[2] = target: T2, TRIM56 (tripartite-motif 56), endogenous (human, UniProt Q9BRZ2 1-755); assay: co-IP with anti-Flag beads (FIG. 17F)
T2 construct: also called ubiquitin E3 ligase TRIM56
T2 sequence (looked up): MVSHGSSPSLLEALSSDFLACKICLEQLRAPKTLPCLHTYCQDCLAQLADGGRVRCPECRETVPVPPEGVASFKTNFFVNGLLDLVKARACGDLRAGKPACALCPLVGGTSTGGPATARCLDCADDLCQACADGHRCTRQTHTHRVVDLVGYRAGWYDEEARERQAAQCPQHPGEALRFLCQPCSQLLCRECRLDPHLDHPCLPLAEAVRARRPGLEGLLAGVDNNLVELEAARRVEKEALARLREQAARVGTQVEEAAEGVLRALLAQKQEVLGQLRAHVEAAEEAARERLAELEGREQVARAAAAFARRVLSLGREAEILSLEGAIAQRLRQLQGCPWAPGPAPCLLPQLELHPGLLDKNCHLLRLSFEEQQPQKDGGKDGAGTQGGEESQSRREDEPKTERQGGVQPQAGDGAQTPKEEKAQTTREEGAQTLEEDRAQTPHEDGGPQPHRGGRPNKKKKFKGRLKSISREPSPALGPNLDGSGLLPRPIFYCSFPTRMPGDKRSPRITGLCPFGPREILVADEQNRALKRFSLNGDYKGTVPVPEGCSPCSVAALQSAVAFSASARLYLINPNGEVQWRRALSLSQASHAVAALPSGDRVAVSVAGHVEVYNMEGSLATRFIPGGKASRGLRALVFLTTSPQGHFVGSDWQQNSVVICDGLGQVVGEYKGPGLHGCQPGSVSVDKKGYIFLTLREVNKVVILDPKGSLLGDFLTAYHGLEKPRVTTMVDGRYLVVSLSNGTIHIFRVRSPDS

[3] = target: B7; assay: co-IP with anti-HA beads, 293T cells, rIL-17B (FIG. 4B)
[4] = target: the molecule itself; assay: Duolink in situ interaction assay with anti-IL-17RB (D9), CFPAC1 cells, 50 ng/ml rIL-17B (FIG. 4D)
[5] = target: T1, HA-TRIM56 (TRIM56-HA, HA-tagged …); assay: co-IP in 293T cells (FIG. 6B) and native-PAGE of mixed purified proteins (FIG. 17A)
[6] = target: B7; assay: co-IP with anti-HA beads, IL-17RB-KO BxPC3 cells, 50 ng/ml rIL-17B (FIG. 14B)
[7] = target: B4; assay: Duolink in situ interaction assay with anti-HA and anti-Flag, IL-17RB-KO BxPC3 cells (FIG. 4C, FIG. 13D)

binding result [1]: no binding
B1: IL-17RB ΔK470˜Q484 (Del-7), Flag-tagged (receptor)
chain: REPTVQCGSETGPSPEWMLQHDLIPGDLRDLRVEPVTTSVATGDYSILMNVSWVLRADASIRLLKATKICVTGKSNFQSYSCVRCNYTEAFQTQTRPSGGKWTFSYIGFPVELNTVYFIGAHNIPNANMNEDGPSMSVNFTSPGCLDHIMKYKKKCVKAGSLWDPNITACKKNEETVEVNFTTTPLGNRYMALIQHSTIIGFSQVFEPHQKKQTRASVVIPVTGDSEGATVQLTPYFPTCGSDCIRHKGTVVLCPQTGVPFPLDNNKSKPGGWLPLLLLSLLVATWVLVAGIYLMWRHERIKKTSFSTTTLLPPIKVLVVYPSEICFHHTICYFTEFLQNHCRSEVILEKWQKKKIAEMGPVQWLATQKKAADKVVFLLSNDVNSVCDGTCGKSEGSPSENSQDLFPLAFNLFCSDLRSQIHLHKYVVVYFREIDTKDDYNALSVCPKYHLMQVSAGKRSQACHDGCCSL
notes: not shown: Flag tag

binding result [1]: no binding
binding result [2]: no binding (tested: 50 ng/ml rIL-17B)
B2: IL-17RB ΔN458˜V462 (Del-6), Flag-tagged (receptor)
chain: REPTVQCGSETGPSPEWMLQHDLIPGDLRDLRVEPVTTSVATGDYSILMNVSWVLRADASIRLLKATKICVTGKSNFQSYSCVRCNYTEAFQTQTRPSGGKWTFSYIGFPVELNTVYFIGAHNIPNANMNEDGPSMSVNFTSPGCLDHIMKYKKKCVKAGSLWDPNITACKKNEETVEVNFTTTPLGNRYMALIQHSTIIGFSQVFEPHQKKQTRASVVIPVTGDSEGATVQLTPYFPTCGSDCIRHKGTVVLCPQTGVPFPLDNNKSKPGGWLPLLLLSLLVATWVLVAGIYLMWRHERIKKTSFSTTTLLPPIKVLVVYPSEICFHHTICYFTEFLQNHCRSEVILEKWQKKKIAEMGPVQWLATQKKAADKVVFLLSNDVNSVCDGTCGKSEGSPSENSQDLFPLAFNLFCSDLRSQIHLHKYVVVYFREIDTKDDYCPKYHLMKDATAFCAELLHVKQQVSAGKRSQACHDGCCSL
notes: also called Del-6 (ΔN458-V462) IL-17RB; not shown: Flag tag

binding result [1]: no binding
B3: IL-17RB ΔV403˜S416 (Del-3), Flag-tagged (receptor)
chain: REPTVQCGSETGPSPEWMLQHDLIPGDLRDLRVEPVTTSVATGDYSILMNVSWVLRADASIRLLKATKICVTGKSNFQSYSCVRCNYTEAFQTQTRPSGGKWTFSYIGFPVELNTVYFIGAHNIPNANMNEDGPSMSVNFTSPGCLDHIMKYKKKCVKAGSLWDPNITACKKNEETVEVNFTTTPLGNRYMALIQHSTIIGFSQVFEPHQKKQTRASVVIPVTGDSEGATVQLTPYFPTCGSDCIRHKGTVVLCPQTGVPFPLDNNKSKPGGWLPLLLLSLLVATWVLVAGIYLMWRHERIKKTSFSTTTLLPPIKVLVVYPSEICFHHTICYFTEFLQNHCRSEVILEKWQKKKIAEMGPVQWLATQKKAADKVVFLLSNDVNSENSQDLFPLAFNLFCSDLRSQIHLHKYVVVYFREIDTKDDYNALSVCPKYHLMKDATAFCAELLHVKQQVSAGKRSQACHDGCCSL
notes: not shown: Flag tag

Binder: B4
binding result [3]: binds

B5: interleukin-17 receptor B (IL-17RB), human, endogenous in pancreatic cancer cells (receptor)
chain: REPTVQCGSETGPSPEWMLQHDLIPGDLRDLRVEPVTTSVATGDYSILMNVSWVLRADASIRLLKATKICVTGKSNFQSYSCVRCNYTEAFQTQTRPSGGKWTFSYIGFPVELNTVYFIGAHNIPNANMNEDGPSMSVNFTSPGCLDHIMKYKKKCVKAGSLWDPNITACKKNEETVEVNFTTTPLGNRYMALIQHSTIIGFSQVFEPHQKKQTRASVVIPVTGDSEGATVQLTPYFPTCGSDCIRHKGTVVLCPQTGVPFPLDNNKSKPGGWLPLLLLSLLVATWVLVAGIYLMWRHERIKKTSFSTTTLLPPIKVLVVYPSEICFHHTICYFTEFLQNHCRSEVILEKWQKKKIAEMGPVQWLATQKKAADKVVFLLSNDVNSVCDGTCGKSEGSPSENSQDLFPLAFNLFCSDLRSQIHLHKYVVVYFREIDTKDDYNALSVCPKYHLMKDATAFCAELLHVKQQVSAGKRSQACHDGCCSL
notes: Endogenous receptor of CFPAC1 / BxPC3 cells, precipitated from lysates or stained in situ; also called interleukin-17B receptor
binding result [4]: binds

binding result [5]: no binding
binding result [6]: binds
B6: IL-17RB Y447F, Flag-tagged (receptor)
chain: REPTVQCGSETGPSPEWMLQHDLIPGDLRDLRVEPVTTSVATGDYSILMNVSWVLRADASIRLLKATKICVTGKSNFQSYSCVRCNYTEAFQTQTRPSGGKWTFSYIGFPVELNTVYFIGAHNIPNANMNEDGPSMSVNFTSPGCLDHIMKYKKKCVKAGSLWDPNITACKKNEETVEVNFTTTPLGNRYMALIQHSTIIGFSQVFEPHQKKQTRASVVIPVTGDSEGATVQLTPYFPTCGSDCIRHKGTVVLCPQTGVPFPLDNNKSKPGGWLPLLLLSLLVATWVLVAGIYLMWRHERIKKTSFSTTTLLPPIKVLVVYPSEICFHHTICYFTEFLQNHCRSEVILEKWQKKKIAEMGPVQWLATQKKAADKVVFLLSNDVNSVCDGTCGKSEGSPSENSQDLFPLAFNLFCSDLRSQIHLHKYVVVFFREIDTKDDYNALSVCPKYHLMKDATAFCAELLHVKQQVSAGKRSQACHDGCCSL
notes: also called Y447F mutant of IL-17RB; not shown: Flag tag

Binder: B7
binding result [7]: binds
